Data from PMC4480679 (Biochemistry, 2015).

Molecular target: T1, PhnI-his (E. coli, UniProt P16687 1-354)
T1 sequence (looked up): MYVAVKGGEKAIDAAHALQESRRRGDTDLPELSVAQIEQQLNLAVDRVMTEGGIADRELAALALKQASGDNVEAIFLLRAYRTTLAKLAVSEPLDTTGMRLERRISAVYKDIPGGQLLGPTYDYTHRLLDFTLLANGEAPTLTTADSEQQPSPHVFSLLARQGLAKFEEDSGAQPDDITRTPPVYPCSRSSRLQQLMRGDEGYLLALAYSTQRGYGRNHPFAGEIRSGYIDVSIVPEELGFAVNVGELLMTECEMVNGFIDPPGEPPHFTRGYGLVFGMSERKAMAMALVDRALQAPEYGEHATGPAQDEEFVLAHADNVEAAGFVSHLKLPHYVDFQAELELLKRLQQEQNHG
Test: N-terminal Edman sequencing of the purified complex

- stoichiometry N: 0.9 ± 0.1 PhnG per PhnI
B1: PhnG (natural protein, E. coli, UniProt P16685 1-150, looked up)
chain: MHADTATRQHWMSVLAHSQPAELAARLNALNITADYEVIRAAETGLVQIQARMGGTGERFFAGDATLTRAAVRLTDGTLGYSWVQGRDKQHAERCALIDALMQQSRHFQNLSETLIAPLDADRMARIAARQAEVNASRVDFFTMVRGDNA
